According to paper PMC3222648, “Inotropic Action of the Puberty Hormone Kisspeptin in Rat, Mouse and Human: Cardiovascular Distribution and Characteristics of the Kisspeptin Receptor” (PLoS ONE, 2011):
Several values for one entry are separate records, joined by “and”; a condition that tells them apart may be missing. Equal values may be shown once. Read-outs that look alike come from different tables or passages of the source. One block for each molecule: values may come before it. Where no end group is shown, it is not given here.

How the values were obtained:
kisspeptin receptor [1] = conditions: ref [3]; cited from earlier work
Description: Kisspeptin, or KP-54, is a member of a larger group of peptides, the RF amides, named after their shared C-terminal amino acids. RF amides have wide ranging roles in reproduction, feeding, blood pressure regulation and pain modulation with kisspeptins most closely implicated in reproduction and energy balance, [23]–[27]. KP-54 is cleaved from a single precursor, encoded by the KISS1 gene, and smaller fragments of kisspeptin have been identified that are cleaved from KP-54 by unidentified proteases.

kisspeptin receptor [2] = molecular target: T1, kisspeptin receptor (Rattus norvegicus, UniProt Q924U1); experiment: [^125I]KP-14 receptor autoradiography, rat cardiovascular tissue sections; assay type: binding; conditions: for [^125I]KP-14 specific binding: 0.2 nM [^125I]KP-14, 2 h, pH 7.4, non-specific: 1 µM KP-10, mean ± SEM
Description: (§1) For receptor autoradiography, cryostat-cut sections of human (15 µm) or rat (10 µm) heart were pre-incubated with phosphate binding buffer (mM: NaH2PO4, 50; NaCl, 100; EDTA, 5; MgCl2, 5; protease inhibitor cocktail, 1; pH 7.4) before incubation for 2 h with 0.2 nM [^125I]KP-14 [31]. […] Equilibrium was broken by washing in 50 mM Tris-HCl buffer, pH 7.4, 4°C before air-drying and apposition to radiation-sensitive film (Kodak Biomax MR) and determination of specific binding by computer-assisted densitometry using the Quantimet 970 system (Leica Microsystems, Bucks, UK).

kisspeptin receptor [3] = molecular target: T1, kisspeptin receptor; experiment: [^125I]KP-14 saturation binding, rat heart sections
Description: (§2) [^125I]KP-14 binding was detected using a gamma counter to measure disintegrations per minute (dpm) and total protein content was calculated using the Biorad 96-well microtiter plate system. Radioligand binding study data were analyzed using the iterative, non-linear curve fitting programs EBDA and LIGAND in the KELL package (Biosoft, Cambridge, UK). Pooled KD, BMAX and Hill slopes (nH) were expressed as mean±SEM and normalized to protein concentrations. […] Where appropriate, values were compared by one-way analysis of variance (ANOVA). In all cases P<0.05 was considered statistically significant and n-values were the number of animals or patients from which data were obtained.

kisspeptin receptor [4] = molecular target: T2, kisspeptin receptor (Homo sapiens, UniProt Q969F8); experiment: [^125I]KP-14 receptor autoradiography, human cardiovascular tissue sections; assay type: binding; conditions: for [^125I]KP-14 specific binding: 0.2 nM [^125I]KP-14, 2 h, mean ± SEM
T2 construct: cryostat-cut sections of human (15 µm) or rat (10 µm) heart; from tissue; host or cells: human right atria (control, dilated cardiomyopathy, ischaemic heart disease), cryostat sections
Description: as §1

kisspeptin receptor [5] = molecular target: T2, kisspeptin receptor; experiment: [^125I]KP-14 saturation binding, human right atria sections; conditions: for BMAX (receptor density) / nH (Hill coefficient): mean ± SEM, n = 3
Description: as §2

native human tissue = conditions: ref [40]; cited from earlier work
[6] = cited from earlier work
Description: Our discovery that kisspeptins are positive inotropic agents in human and rodent heart is the first report of such activity. […] Activation of these signaling pathways would be consistent with function as both an inotropic a ...

human heart = conditions: ref [39]; cited from earlier work
Description: The RF-amide peptide family, which also includes prolactin releasing peptide, are known to have roles in cardiovascular regulation, both centrally and peripherally, [35]. However, to date mRNA studies of kisspeptin receptor distribution in whole heart samples have reported low but varying mRNA expression by northern blot, expression was not detected by PCR [3], [4], [32] except by Sawyer and colleagues, who were also able to detect mRNA encoding murine kisspeptin, albeit at very low copy number. We now report for the first time, the expression of kisspeptin a ...

KP-14 = molecular target: T3, KP-14 (Homo sapiens, UniProt Q15726, ends and bridges not checked; also: 125I-labelled); experiment: saturation radioligand binding, heart sections
T3 chain: DLPNYNWNSFGLRF

[7] = human right atria, dilated cardiomyopathy (DCM)
[8] = human right atria, ischaemic heart disease (IHD)

T2 sequence (Q969F8 whole entry): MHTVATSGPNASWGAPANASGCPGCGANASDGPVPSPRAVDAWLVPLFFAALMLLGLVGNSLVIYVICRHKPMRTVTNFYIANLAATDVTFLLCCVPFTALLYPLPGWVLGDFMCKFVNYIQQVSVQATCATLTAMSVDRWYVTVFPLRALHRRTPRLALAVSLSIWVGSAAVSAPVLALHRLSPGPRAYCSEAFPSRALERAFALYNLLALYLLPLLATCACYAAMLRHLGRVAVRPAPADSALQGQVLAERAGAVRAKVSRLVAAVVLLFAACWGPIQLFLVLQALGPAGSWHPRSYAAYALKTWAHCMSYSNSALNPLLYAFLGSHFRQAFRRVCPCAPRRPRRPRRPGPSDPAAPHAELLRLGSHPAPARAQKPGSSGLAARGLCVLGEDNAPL

Molecule: KP-13: smaller fragment of kisspeptin cleaved from KP-54 (LPNYNWNSFGLRF; ends and bridges not checked; UniProt Q15726 109-121, looked up)
biological activity of fragment (kisspeptin receptor [1]): retain biological activity

Molecule: KP-14: smaller fragment of kisspeptin cleaved from KP-54; custom synthesised by Severn Biotech (DLPNYNWNSFGLRF-NH2; ends and bridges not checked; UniProt Q15726 108-121, looked up)
biological activity of fragment (kisspeptin receptor [1]): retain biological activity

Hill slopes (in words) (kisspeptin receptor [3]): close to unity | BMAX (kisspeptin receptor [3]; mean ± SEM, n = 6): 11 ± 2 fmol/mg | nH (Hill coefficient) (kisspeptin receptor [5]; control human right atria): 0.82±0.10 | Hill slopes (in words) (kisspeptin receptor [5]; human right atria): close to unity | BMAX (receptor density) (kisspeptin receptor [5]; [8]): 13.5±7.0 fmol mg^−1 protein | nH (Hill coefficient) (kisspeptin receptor [5]; [8]): 0.94±0.03
Molecule: [^125I]KP-14: radioligand (2000 Ci/mmol) prepared from unlabelled KP-14 by direct iodination using the chloramine-T method (DLPNYNWNSFGLRF; not fully specified; ends and bridges not checked; also: 125I radiolabel, site not given here; UniProt Q15726 108-121, looked up)
[^125I]KP-14 specific binding (kisspeptin receptor [2]; rat aorta, n = 3): 21±2 amol mm^−2 | [^125I]KP-14 specific binding (kisspeptin receptor [2]; rat heart, n = 5): 29±10 amol mm^−2 | specific binding of [^125I]KP-14 (in words) (kisspeptin receptor [2]; rat myocardium, rat aorta smooth muscle): observed in all regions of human and rat myocardium | [^125I]KP-14 specific binding (kisspeptin receptor [4]; human aorta, pH 7.4, n = 6): 214±46 amol mm^−2 | [^125I]KP-14 specific binding (kisspeptin receptor [4]; human apex, pH 7.4, n = 4): 27±6 amol mm^−2 | [^125I]KP-14 specific binding (kisspeptin receptor [4]; human atrial appendage, pH 7.4, n = 4): 51±15 amol mm^−2 | [^125I]KP-14 specific binding (kisspeptin receptor [4]; human interventricular septum, pH 7.4, n = 3): 29±10 amol mm^−2 | [^125I]KP-14 specific binding (kisspeptin receptor [4]; human left atria, phosphate binding buffer pH 7.4, non-specific: 10 µM KP-14, n = 3): 59±16 amol mm^−2 | [^125I]KP-14 specific binding (kisspeptin receptor [4]; human left ventricle, pH 7.4, n = 3): 34±8 amol mm^−2 | specific binding of [^125I]KP-14 (in words) (kisspeptin receptor [4]; human myocardium, all regions, smooth muscle of human aorta and small coronary resistance vessels): observed in all regions of human and rat myocardium | [^125I]KP-14 specific binding (kisspeptin receptor [4]; human right atria, pH 7.4, n = 3): 36±7 amol mm^−2 | [^125I]KP-14 specific binding (kisspeptin receptor [4]; human right ventricle, pH 7.4, n = 3): 31±7 amol mm^−2 | [^125I]KP-14 specific binding (kisspeptin receptor [4]; human small resistance vessel, pH 7.4, n = 5): 4±3 amol mm^−2 | BMAX (receptor density) (kisspeptin receptor [5]; control human right atria): 8±5 fmol mg^−1 protein and 8.0±4.8 fmol mg^−1 protein | difference in receptor density or binding affinity (kisspeptin receptor [5]; human right atria, control vs DCM vs IHD): No significant difference in receptor density or binding affinity | BMAX (receptor density) (kisspeptin receptor [5]; [7]): 10.2±3.4 fmol mg^−1 protein | nH (Hill coefficient) (kisspeptin receptor [5]; [7]): 1.00±0.02

Molecule: apelin
BMAX (native human tissue): 3.1 fmol/mg | pD2 (inotropic effect) ([6]; ref [44]): 9.9

Molecule: endothelin
pD2 (inotropic effect) ([6]; ref [43]): 8.9

Molecule: urotensin-II: vasoactive peptide and potent inotrope in human heart (ETPDCFWKYCV; ends and bridges not checked; cysteine pairing not given here; UniProt O95399 114-124, looked up)
inotropic activity (in words) (human heart): potent inotrope in human heart

Kd (KP-14): 0.44 nM
B1: Kisspeptin receptor (protein)
chain: MAAEATLGPNVSWWAPSNASGCPGCGVNASDGPGSAPRPLDAWLVPLFFAALMLLGLVGNSLVIFVICRHKHMQTVTNFYIANLAATDVTFLLCCVPFTALLYPLPTWVLGDFMCKFVNYIQQVSVQATCATLTAMSVDRWYVTVFPLRALHRRTPRLALTVSLSIWVGSAAVSAPVLALHRLSPGPHTYCSEAFPSRALERAFALYNLLALYLLPLLATCACYGAMLRHLGRAAVRPAPTDGALQGQLLAQRAGAVRTKVSRLVAAVVLLFAACWGPIQLFLVLQALGPSGAWHPRSYAAYALKIWAHCMSYSNSALNPLLYAFLGSHFRQAFCRVCPCGPQRQRRPHASAHSDRAAPHSVPHSRAAHPVRVRTPEPGNPVRRSPSVQDEHTAPL
